# Experimental data published in PMC13376213, “Systematic discovery of motif-based interactions of the auxiliary domains of USP family deubiquitinases” (Nature Communications, 2026).
# Target: FITC-ATXN7L1 36-57 peptide (human)
# Experiment: fluorescence polarisation; saturation: serial dilution of the protein domain, 10 nM FITC-labelled peptide; 50 mM phosphate buffer pH 7.4 with DTT; room temperature; three technical replicates; quadratic fit
# Conditions: not given
row,Kd [µM],Substance
1,1,USP22 zf-UBP domain (from UniProt Q9UPT9 1-525) (domain or fragment)

# Target: FITC-HIF1A 568-581 peptide (human)
# Experiment: as above
# Conditions: not given
row,Kd [µM],Substance
1,31.3,USP33 DUSP2 domain (from UniProt Q8TEY7 1-942) (domain or fragment)
2,319,USP33 DUSP2 domain K863E/K865E (from UniProt Q8TEY7 1-942) (domain or fragment)
3,353,USP33 DUSP2 domain N835A (from UniProt Q8TEY7 1-942) (domain or fragment)

# Target: FITC-APBA2 327-338 peptide (human)
# Experiment: as above
# Conditions: not given
row,Kd [µM],Substance
1,2.91,USP20 zf-UBP domain (from UniProt Q9Y2K6 1-914) (domain or fragment)
2,388,USP20 zf-UBP domain E55K/D59R (from UniProt Q9Y2K6 1-914) (domain or fragment)
3,8.69,USP33 zf-UBP domain (from UniProt Q8TEY7 1-942) (domain or fragment)

# Target: FITC-GPR137B 348-362 peptide (human)
# Experiment: as above
# Conditions: not given
row,Kd [µM],Substance
1,5.14,USP20 DUSP2 domain (from UniProt Q9Y2K6 1-914) (domain or fragment)
2,293,USP20 DUSP2 domain K833E/K835E (from UniProt Q9Y2K6 1-914) (domain or fragment)
3,140,USP20 DUSP2 domain N805A (from UniProt Q9Y2K6 1-914) (domain or fragment)

# Target: FITC-ORAI1 48-63 peptide (human)
# Experiment: as above
# Conditions: not given
row,Kd [µM],Substance
1,294,USP11 DUSP-UBL tandem domain (from UniProt P51784 1-963) (domain or fragment)

# Target: USP33 DUSP2 domain (human) (UniProt Q8TEY7)
# Experiment: fluorescence polarisation; displacement: serial dilution of the unlabelled peptide against the domain (at two-fold the KD of the FITC-labelled peptide) in complex with 10 nM FITC-labelled peptide; 50 mM phosphate buffer pH 7.4; room temperature; three technical replicates; sigmoidal dose-response fit
# Conditions: not given
row,Kd [µM],Substance
1,930,HIF1A 564-581 F572A peptide

# Target: USP20 DUSP2 domain (human) (UniProt Q9Y2K6)
# Experiment: as above
# Conditions: not given
row,Kd [µM],Substance
1,589,HIF1A 564-581 F572A peptide

# Target: CYLD CAP-Gly1 domain, GST-tagged (UniProt Q9NQC7)
# Experiment: peptide SPOT array alanine scanning
# Conditions: parent: est. 0; read off a plot
row,other: signal change (%),Substance
1,-25,RBM25_(558-573) peptide (from UniProt P49756) A560 (replacement residue not printed)
2,-60,RBM25_(558-573) peptide (from UniProt P49756) A569 (replacement residue not printed)

# Target: CYLD CAP-Gly2 domain, GST-tagged (UniProt Q9NQC7)
# Experiment: peptide SPOT array alanine scanning
# Conditions: parent: est. 0; read off a plot
row,other: signal change (%),Substance
1,-75,FBXO46_(168-183) peptide A173 (replacement residue not printed)
2,-80,FBXO46_(168-183) peptide A177 (replacement residue not printed)
3,-55,FBXO46_(168-183) peptide A183 (replacement residue not printed)
4,150,FBXO46_(168-183) peptide D168A
5,-80,FBXO46_(168-183) peptide E174A
6,-75,FBXO46_(168-183) peptide E180A
7,-70,FBXO46_(168-183) peptide L169A
8,-70,FBXO46_(168-183) peptide L170A
9,-65,FBXO46_(168-183) peptide L178A
10,-90,FBXO46_(168-183) peptide M175A
11,0,FBXO46_(168-183) peptide Q181A
12,-85,FBXO46_(168-183) peptide R182A
13,-70,FBXO46_(168-183) peptide S171A
14,-75,FBXO46_(168-183) peptide V172A
15,-85,FBXO46_(168-183) peptide V176A
16,-80,FBXO46_(168-183) peptide V179A

# Target: USP22 zf-UBP domain, tag cleaved (for FP) (human) (UniProt Q9UPT9)
# Experiment: fluorescence polarisation; saturation or displacement not stated for this experiment; 50 mM phosphate buffer pH 7.4, room temperature
# Conditions: not given
row,Kd [µM],Substance
1,58,ATXN7_(84-105) peptide (from UniProt O15265 84-105)

# Target: USP33 DUSP2 domain, tag cleaved (for FP) (human) (UniProt Q8TEY7)
# Experiment: fluorescence polarisation; displacement: unlabeled peptide titrated into the domain (at two-fold the KD of the FITC-labeled peptide) with 10 nM FITC-labeled peptide; 50 mM phosphate buffer pH 7.4, DTT, room temperature; estimated KD
# Conditions: not given
row,Kd [µM],Substance
1,7,HIF1A peptide hydroxylated at P564
2,145,HIF1A_(564-581) peptide D571K (from UniProt Q16665 564-581)
3,> 900,HIF1A_(564-581) peptide F572A (from UniProt Q16665 564-581)
4,> 200,HIF1A_(564-581) peptide L574A (from UniProt Q16665 564-581)
5,1.5,"HIF1A_(564-581) peptide, wild type, unlabeled (from UniProt Q16665 564-581)"

# Target: USP33 zf-UBP domain, tag cleaved (for FP) (human) (UniProt Q8TEY7)
# Experiment: as above
# Conditions: not given
row,Kd [µM],Substance
1,112,APBA2_(327-338) peptide N334A (from UniProt Q99767 327-338)
2,> 500,APBA2_(327-338) peptide R330A (from UniProt Q99767 327-338)
3,< 8,"APBA2_(327-338) peptide, wild type, unlabeled"

# Target: USP20 DUSP2 domain, tag cleaved (for FP) (human)
# Experiment: as above
# Conditions: not given
row,Kd [µM],Substance
1,26,HIF1A peptide hydroxylated at P564
2,85,HIF1A_(564-581) peptide D571K (from UniProt Q16665 564-581)
3,89,HIF1A_(564-581) peptide L574A (from UniProt Q16665 564-581)
4,19,"HIF1A_(564-581) peptide, wild type, unlabeled (from UniProt Q16665 564-581)"
